Legend:
[1] = Integrated reaction: Neu5Ac production from GlcNAc and pyruvate at alkaline pH (TBA assay); format: biochemical
Description: For ManNAc reactions, the buffer used was HEPES, pH 8.0. […] Experiments were performed in triplicate. For ManNAc experiments, aliquots were sampled after 0.5, 1.0, 1.5, 2.5 and 4.0 h. For GlcNAc experiments, aliquots were sampled after 12, 24, 36, 48 and 72 h. Reactions were terminated by addition of 2 μl concentrated H2SO4. The time needed for N-acetylneuraminic acid (Neu5Ac) production to get started under these conditions was known to take longer time based on initial test experiments. The thiobarbituric acid (TBA) assay procedure was followed to determine the amount of Neu5Ac produced. The activity was corrected for a blank value. The blank contained all the reaction components except for enzyme.
Initially, also glycine buffer was tested at pH 10.5 and pH 11.0 for the reactions with GlcNAc. GlcNAc will chemically epimerize to ManNAc at pH values above 9.0, which the enzyme will use as substrate for the production of Neu5Ac. The epimerization is pH dependent and will increase with increasing pH. Production of Neu5Ac was higher in CAPS buffer compared to glycine buffer, so this was chosen for further experiments.

[2] = Differential scanning calorimetry (DSC); format: physicochemical; conditions: 500 mM NaCl, 50 mM HEPES pH 7.5
Description: The melting temperature of AsNAL was studied by differential scanning calorimetry (DSC). The pure protein was dialyzed overnight at 4° C. against a buffer containing 50 mM HEPES, pH 7.5 and 500 mM NaCl in a Pierce Slide-A-Lyzer dialysis cassette (3.5 kDa cut-off). Dialyzed protein was concentrated to 1.9 mg/ml using a 10 kDa cutoff Amicon Ultra spin-column (Millipore), filtered through a 0.2 μm filter (Millipore) and degassed for 15 min. DSC experiments were carried out with a Nano-Differential Scanning Calorimeter III, (calorimetry Sciences Corporation) at a scan rate of 1° C./min in the range from 1 to 80° C. and with a constant pressure of 3 atm. The dialysis buffer was used as reference in the DSC runs. The melting temperature of the protein was calculated by subtracting the buffer-buffer baseline from the protein scan. Refolding experiments were carried out by a reverse cooling scan, allowing the unfolded protein to be kept at 4° C. overnight before a new forward scan was done. The NanoAnalyze™ software was used to calculate the melting temperature. The experimental transition curves were fitted on a two-state transition model.

B1: AsNAL: N-acetylneuraminate lyase isolated from the psychrophilic bacterium Aliivibrio salmonicida LFI1238, recombinantly expressed in E. coli (protein, listed as Aliivibrio salmonicida)
chain: MKKLTGLIAAPHTPFDSSSNVNFEEIDKIAKHLINDGVKGIYVCGTTGEGIHCSVEERKAIAERWVSACNHKLDIIVHTGALSIVDTLELTRHADTLDILATSAIGPCFFKPGSVSDLVEYCATIAAAAPSKGFYYYHSGMSGVNLNMEEFLIQADKRIPNLSGLKFNSGDLYEYQRCLRACDGKFDVPFGVDEFLPGALAVGAKSAVGSTYNYAAPHFNSIIEAFNKGDHDAVFNKMTNVIELIRVLVEFGGVAAGKIAMELHDINAGDPRLPLMPLSAEQKLTVVEKMRAANFLK
In the case of B1, the “production of Neu5Ac relative to highest amount obtained with pyruvate and ManNAc 4:1 at pH 8.0” value ([1]; pyruvate and GlcNAc 4:1, CAPS pH 11.0, 48 h) is reported as “around 60%”, the “production of Neu5Ac (in words)” value ([1]; pyruvate and GlcNAc, CAPS pH 11.5) is reported as “able to produce Neu5Ac in the same range as at pH 11.0” and the “melting temperature (DSC)” value [2] is reported as 77.5 °C. The “ΔH (DSC)” value [2] was 179.164 kcal/mol and the “ΔS (DSC)” value [2] was 2.137 kJ/(mol·K).
